From US6794491B1, “Polypeptides, their production and use” (Takeda Chemical Industries, Ltd., priority 1995, dated 2004)
“Also recorded” adds a separate entry of the source. Where no end group is shown, it is not given here. [ ]: non-standard residue; d: D form. Met(O) = CS(=O)CC[C@H](N)C(=O)O

Experiments:
[1] = plasma growth hormone (GH) level in freely moving rats, GHRH-induced; format: in vivo, male Wistar rats; conditions: 5 μg/kg GHRH intravenously
Protocol: Mature male Wistar rats were anesthetized with pentobarbital 50 mg/kg i.p. and, as in Example 41, a stainless-steel guide cannula AG-12 (0.4 mm in. dia., 0.5 mm out. dia., EICOM) was implanted in position with its tip situated in the upper part of the third ventricle. After the operation the rats were housed in individual cages and kept for at least 3 days for recuperation and, then, a cannula (30 cm long, 0.5 mm in. dia., 0.9 mm out. dia., Natsume Seisakusho) filled with heparin (200 U/ml)-containing saline was inserted into the right atrium from the right jugular vein under pentobarbital anesthesia. The rats were maintained overnight for complete arousal from anesthesia and then transferred to transparent acrylic cages (30 cm×30 cm×35 cm). A 1 ml tuberculin syringe with a 24-G needle (both by Termo) was connected to the cannula inserted in the atrium and 300 μl of blood was drawn. To prevent clotting, the syringe was filled with 20 μl of saline containing 200 U/ml of heparin beforehand. […] The concentrations of GH in the plasma were determined by radioimmunoassay.
The results were expressed as a mean±S.E.M. To test for significant difference between the group treated with 19P2-L31 dissolved in PBS and the control group treated with PBS alone, Student's t-test was used. […]

[2] = biological target: T1, full-length receptor protein expressed CHO cells (CHO-19P2); human pituitary receptor protein (hGR3) (Homo sapiens, UniProt P49683); experiment: release of arachidonic acid metabolites from CHO-19P2 cells; format: cell-based; conditions: for arachidonic acid metabolite-releasing activity: amount of [3H]arachidonic acid metabolites, 10^−12 M-10^−6 M in 0.05% BSA-HBSS
T1 construct: to construct a full-length receptor protein expression plasmid pAKKO-19P2; expressed in transfected cells; host or cells: CHO dhfr- cells transfected with pAKKO-19P2 (CHO-19P2; clone CHO-19P2-9)
T1 sequence (P49683 1-370): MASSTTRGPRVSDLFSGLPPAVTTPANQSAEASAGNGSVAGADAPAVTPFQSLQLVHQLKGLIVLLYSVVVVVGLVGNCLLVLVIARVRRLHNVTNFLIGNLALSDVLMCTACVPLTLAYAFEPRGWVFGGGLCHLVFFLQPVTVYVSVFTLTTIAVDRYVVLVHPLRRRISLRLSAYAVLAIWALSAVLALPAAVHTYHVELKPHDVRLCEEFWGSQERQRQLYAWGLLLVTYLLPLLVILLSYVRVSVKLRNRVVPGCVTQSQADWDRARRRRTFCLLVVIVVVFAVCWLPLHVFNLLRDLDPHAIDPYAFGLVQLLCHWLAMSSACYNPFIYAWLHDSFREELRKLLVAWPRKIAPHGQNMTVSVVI
Protocol: The full-length receptor protein-expressed CHO cells and mock CHO cells were seeded in a 24-well plate, 0.5×10^5 cells/well, and cultured for 24 hours. Then, [^3H] arachidonic acid was added at a final concentration of 0.25 μCi/well. Sixteen (16) hours after addition of [^3H] arachidonic acid, the cells were rinsed with 0.05% BSA-HBSS and the above-mentioned crude peptide fraction was added, 400 μl/well. The mixture was incubated at 37° C. for 30 minutes and a 300 μl portion of the reaction mixture (400 μl) was added to 4 ml of a scintillator and the amount of [^3H] arachidonic acid metabolite released into the reaction mixture was determined with a scintillation counter.
The activity of the peptide (19P2-L31) synthesized in Example 21 to specifically release arachidonic acid metabolites from CHO-19P2 cells was assayed in the same manner as Example 11. The synthetic peptide was dissolved in degassed dH20 at a concentration of 10^−3M and diluted with 0.05% BSA-HBSS and the activity to promote release of arachidonic acid metabolites from CHO-19P2 cells at each concentration was assayed using the amount of [^3H]arachidonic acid metabolites as the indicator.
The activity of the synthetic equivalent (19P2-L20) of natural peptide P-2 as synthesized in Example 23 to specifically promote release of arachidonic acid metabolites from CHO-19P2 cells was determined as in Example 11. Thus, the synthetic peptide was dissolved in degassed dH2O at a final concentration of 10^−3M and this solution was serially diluted with 0.05% BAS-HBSS. The activity to specifically promote release of arachidonic acid metabolites from CHO-19P2 cells at each concentration was assayed using the amount of [^3H]arachidonic acid metabolites as the indicator.

Substance | plasma GH level [1] | arachidonic acid metabolite-releasing activity compared with that of 19P2-L31 [2] | arachidonic acid metabolite-releasing activity [2]
GHRH: Growth hormone releasing hormone (YADAIFTNSYRKVLGQLSARKLLQDIMSRQQGESNQERGARARL; ends and bridges not checked; UniProt P01286 32-75, looked up) [reference compound] | elevated the plasma GH level |  | 
19P2-L31(O): the methionine-oxidation product of 19P2-L31 synthesized in Example 22 (SRAHQHS[Met(O)]EIRTPDINPAWYAGRGIRPVGRF-NH2; N-terminus assumed; SMILES CC[C@H](C)[C@H](NC(=O)CNC(=O)[C@H](CCCNC(=N)N)NC(=O)CNC(=O)[C@H](C)NC(=O)[C@H](Cc1ccc(O)cc1)NC(=O)[C@H](Cc1c[nH]c2ccccc12)NC(=O)[C@H](C)NC(=O)[C@@H]1CCCN1C(=O)[C@H](CC(N)=O)NC(=O)[C@@H](NC(=O)[C@H](CC(=O)O)NC(=O)[C@@H]1CCCN1C(=O)[C@@H](NC(=O)[C@H](CCCNC(=N)N)NC(=O)[C@@H](NC(=O)[C@H](CCC(=O)O)NC(=O)[C@H](CCS(C)=O)NC(=O)[C@H](CO)NC(=O)[C@H](Cc1c[nH]cn1)NC(=O)[C@H](CCC(N)=O)NC(=O)[C@H](Cc1c[nH]cn1)NC(=O)[C@H](C)NC(=O)[C@H](CCCNC(=N)N)NC(=O)[C@@H](N)CO)[C@@H](C)CC)[C@@H](C)O)[C@@H](C)CC)C(=O)N[C@@H](CCCNC(=N)N)C(=O)N1CCC[C@H]1C(=O)N[C@H](C(=O)NCC(=O)N[C@@H](CCCNC(=N)N)C(=O)N[C@@H](Cc1ccccc1)C(N)=O)C(C)C) |  | equivalent to the activity of 19P2-L31 | found in a dose-dependent manner
Thr-Pro-Asp-Ile-Aln-Pro-Ala-Trp-Tyr-Ala-Gly-Arg-Gly-Ile-Arg-Pro-Val-Gly-Arg-Phe-NH2 (TPDINPAWYAGRGIRPVGRF-NH2; also: position 5 written 'Aln' in name, letter N) [19P2-L20] |  | in nearly the same degree as 19P2-L31 | concentration-dependent arachidonic acid metabolite-releasing activity was detected over the range of 10^−12-10^−6M; also recorded: found in a dose-dependent manner
